Tests used:
[1] = target: T1, human MSLN-R1-his protein (human, UniProt Q13421 296-390); assay: ELISA on coated MSLN-R1; antibody 1 nM
T1 construct: Region 1 of human mesothelin, made in HEK293E cells, His-tagged; also called human MSLN-R1 protein; hMSLN-R1-his; not shown: His tag
T1 chain: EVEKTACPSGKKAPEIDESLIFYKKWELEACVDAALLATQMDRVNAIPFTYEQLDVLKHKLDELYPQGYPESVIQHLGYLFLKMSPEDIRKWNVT

[2] = target: T2, human MSLN-R2-his protein (human, UniProt Q13421 391-486); assay: ELISA on coated MSLN-R2; antibody 1 nM
T2 construct: Region 2 of human mesothelin, made in HEK293E cells, His-tagged; also called human MSLN-R2 protein; hMSLN-R2-his; not shown: His tag
T2 sequence (Q13421 other isoform, or with tags, fused parts or gaps): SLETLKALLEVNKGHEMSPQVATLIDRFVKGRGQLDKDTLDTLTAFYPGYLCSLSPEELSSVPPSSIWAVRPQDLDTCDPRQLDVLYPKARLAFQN

[3] = target: T1, human MSLN-R1-his protein; assay: ELISA on coated MSLN-R1; antibody 10 nM
Procedure: (§1) The plate was sealed with a plastic film and incubated at 4° C. overnight. The next day, the plate was washed twice with PBST, and a blocking buffer [PBS+2% (w/w) BSA] was added for blocking at room temperature for 2 h. The blocking buffer was discarded, and a chimeric antibody or negative control antibody serially diluted from 100 nM was added at 50 μL/well. After incubation at 37° C. for 2 h, the plate was washed 3 times with PBST. […] After incubation at 37° C. for 2 h, the plate was washed 5 times with PBST. A TMB substrate was added at 50 μL/well for incubation at room temperature for 5-10 min, and then a stop solution (1.0 N HCl) was added at 50 μL/well.

[4] = target: T2, human MSLN-R2-his protein; assay: ELISA on coated MSLN-R2; antibody 10 nM
[5] = target: T1, human MSLN-R1-his protein; assay: ELISA on coated MSLN-R1; antibody 0.1 nM
[6] = target: T1, human MSLN-R1-his protein; assay: ELISA on coated MSLN-R1; antibody 100 nM
[7] = target: T2, human MSLN-R2-his protein; assay: ELISA on coated MSLN-R2; antibody 0.1 nM
Procedure: as §1

[8] = target: T2, human MSLN-R2-his protein; assay: ELISA on coated MSLN-R2; antibody 100 nM
Procedure: as §1

[9] = target: T1, human MSLN-R1-his protein; assay: ELISA on coated MSLN-R1; antibody 0.01 nM
Procedure: as §1

[10] = target: T2, human MSLN-R2-his protein; assay: ELISA on coated MSLN-R2; antibody 0.01 nM
Procedure: as §1

[11] = target: T1, human MSLN-R1-his protein; assay: ELISA on coated MSLN-R1; antibody 0.001 nM
[12] = target: T2, human MSLN-R2-his protein; assay: ELISA on coated MSLN-R2; antibody 0.001 nM
Procedure: as §1

[13] = target: T1, human MSLN-R1-his protein; assay: ELISA on coated MSLN-R1; antibody 0.0001 nM
[14] = target: T2, human MSLN-R2-his protein; assay: ELISA on coated MSLN-R2; antibody 0.0001 nM
Procedure: as §1

[15] = target: T1, human MSLN-R1-his protein; assay: ELISA on coated MSLN-R1; no antibody (blank)
[16] = target: T2, human MSLN-R2-his protein; assay: ELISA on coated MSLN-R2; no antibody (blank)
Procedure: as §1

[17] = target: T3, human MSLN-FL-his protein (human, UniProt Q13421 296-580); assay: ELISA, coated antigen, antibody 2 nM
T3 construct: Made in HEK293E cells, purified on nickel column; also called hMSLN-FL-his; human MSLN full-length protein; not shown: His tag
T3 sequence (Q13421 other isoform, or with tags, fused parts or gaps): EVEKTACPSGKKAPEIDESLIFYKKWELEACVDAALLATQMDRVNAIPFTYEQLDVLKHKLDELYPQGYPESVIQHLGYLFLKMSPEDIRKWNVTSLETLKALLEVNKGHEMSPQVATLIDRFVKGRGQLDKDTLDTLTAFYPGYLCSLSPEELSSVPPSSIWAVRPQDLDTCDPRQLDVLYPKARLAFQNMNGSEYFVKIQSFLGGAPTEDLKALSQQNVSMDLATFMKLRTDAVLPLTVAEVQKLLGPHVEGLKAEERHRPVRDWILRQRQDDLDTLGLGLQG

[18] = target: T4, human MSLN-R1-his protein (human, UniProt Q13421 296-390); assay: ELISA, coated antigen, antibody 2 nM
T4 construct: Made in HEK293E cells, purified on nickel column; also called hMSLN-R1-his; human MSLN-R1 protein; not shown: His tag
T4 chain: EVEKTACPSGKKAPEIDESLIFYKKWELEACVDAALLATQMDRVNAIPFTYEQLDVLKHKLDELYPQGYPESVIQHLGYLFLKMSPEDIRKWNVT

[19] = target: T3, human MSLN-FL-his protein; assay: ELISA, coated antigen, antibody 20 nM
Procedure: as §1

[20] = target: T4, human MSLN-R1-his protein; assay: ELISA, coated antigen, antibody 20 nM
Procedure: as §1

[21] = target: T3, human MSLN-FL-his protein; assay: ELISA, coated antigen, antibody 0.2 nM
Procedure: as §1

[22] = target: T3, human MSLN-FL-his protein; assay: ELISA, coated antigen, antibody 200 nM
Procedure: as §1

[23] = target: T4, human MSLN-R1-his protein; assay: ELISA, coated antigen, antibody 0.2 nM
Procedure: as §1

[24] = target: T4, human MSLN-R1-his protein; assay: ELISA, coated antigen, antibody 200 nM
Procedure: as §1

[25] = target: T3, human MSLN-FL-his protein; assay: ELISA, coated antigen, antibody 0.02 nM
Procedure: as §1

[26] = target: T4, human MSLN-R1-his protein; assay: ELISA, coated antigen, antibody 0.02 nM
Procedure: as §1

[27] = target: T3, human MSLN-FL-his protein; assay: ELISA, coated antigen, antibody 0.002 nM
Procedure: as §1

[28] = target: T4, human MSLN-R1-his protein; assay: ELISA, coated antigen, antibody 0.002 nM
Procedure: as §1

[29] = target: T3, human MSLN-FL-his protein; assay: ELISA, coated antigen, antibody 0.0002 nM
[30] = target: T4, human MSLN-R1-his protein; assay: ELISA, coated antigen, antibody 0.0002 nM
Procedure: as §1

[31] = target: T3, human MSLN-FL-his protein; assay: ELISA, coated antigen, no antibody (blank)
Procedure: as §1

[32] = target: T4, human MSLN-R1-his protein; assay: ELISA, coated antigen, no antibody (blank)
Procedure: as §1

B1: S009-F8-7.5 (antibody, human IgG1, kappa, V domains shown)
VH: DVQLQESGPGLVKPSQSLSLTCSVTGYSITSGYYWNWIRQFPGNKLEWMAYIRYDGSNNYNPSLKNRISIIRDTSKNQFFLRLNSVTTEDTATYYCAKSYYGMDDWGQGISVTVSS
VL: DIQMTQSPASLSASVGETVTITCRTSGDIHNYLAWYQQKQGKSPQLLVYKAKTLENGVPSRFTGSGSGTQFSLKIDSLQPEDFGTYYCQHFWTTPYTFGGGTKLEIKR
OD450 [1]: 0.05 OD450
OD450 [2]: 1.85 OD450
OD450 [3]: 0.06 OD450
OD450 [4]: 2.18 OD450
OD450 [5]: 0.05 OD450
OD450 [6]: 0.12 OD450
OD450 [7]: 1.18 OD450
OD450 [8]: 2.32 OD450
OD450 [9]: 0.04 OD450
OD450 [10]: 0.31 OD450
OD450 [11]: 0.05 OD450
OD450 [12]: 0.09 OD450
OD450 [13]: 0.04 OD450
OD450 [14]: 0.06 OD450
OD450 [15]: 0.05 OD450
OD450 [16]: 0.05 OD450

B2: S009-F7.69.8 chimeric antibody (antibody, human IgG1, kappa, V domains shown)
VH: EVHLQQSGPELVKPGASVRIPCKASGYTFTDYNMDWVKQSHGKSLEWIGDINPDNGGTIYTQKFKGKATLTVDKSSSTAYMELRSLTSEDTAVYYCARRLHYYGSSGLDYWGQGTTLTVSS
VL: DIQMTQSPASLSAYVGETVTITCRASGNIHNYLAWYQQKQGKSPQLLVYNAKTLADGVPSRFSGSGSGTQYSLKINSLQPEDFGSYYCQHFWSTVWTFGGGTKLEIKR
notes: Human-murine chimeric antibody, human IgG1/kappa constant regions
OD450 [17]: 2.29
OD450 [18]: 0.04
OD450 [19]: 2.26
OD450 [20]: 0.06
OD450 [21]: 2.15
OD450 [22]: 2.1
OD450 [23]: 0.05
OD450 [24]: 0.11
OD450 [25]: 1.42
OD450 [26]: 0.04
OD450 [27]: 0.43
OD450 [28]: 0.05
OD450 [29]: 0.13
OD450 [30]: 0.05
OD450 [31]: 0.06
OD450 [32]: 0.07

B3: S009-F7.65.13 chimeric antibody (antibody, human IgG1, kappa, V domains shown)
VH: EVQLQQSGPELVKPGTSVKILCKASGDTFTAYNMDWVKQRHGQSLEWIGDINPNTDSTIYNQKFEGKAILTVDKSSSTAYMELRSLTSEDTAVYYCARRKLGRGYFDYWGQGTTLTVSS
VL: QIVLTQSPAIMSASPGEKVTMTCSVNLSVRYIYWYQQKPGSSPRLLIHDTSNLASGVPVRFSGSGSGTSYSLTISRMEAEDAATYYCQQWSSFPYTFGGGTKLEIKR
notes: as for B2
OD450 [17]: 2.11
OD450 [18]: 0.05
OD450 [19]: 2.12
OD450 [20]: 0.05
OD450 [21]: 2.1
OD450 [22]: 2.13
OD450 [23]: 0.05
OD450 [24]: 0.08
OD450 [25]: 1.35
OD450 [26]: 0.05
OD450 [27]: 0.52
OD450 [28]: 0.05
OD450 [29]: 0.24
OD450 [30]: 0.05
OD450 [31]: 0.06
OD450 [32]: 0.07

B4: S009-F7.66.12 chimeric antibody (antibody, human IgG1, kappa, V domains shown)
VH: QIPLQQSGPELVKPGASVRISCKASDYAFSSSWMNWVKQRPEKGLEWIGRIFVESGNTHYNDKFNGKATLTADKSSRTAYIQLSSLTSEDSAVYFCTRENIFYHGHSSWFAYWGQGTLVTVSA
VL: DIVLTQSPASLVVSLGQRATISCRAGESVDDFGISYVHWYQQKPGQPPKLLIYRAANLESGIPARFSGSGSRTDFTLTINPVETDDVAIYYCQQNNKDPFTFGSGTKLEIKR
notes: as for B2
OD450 [17]: 2.23
OD450 [18]: 0.05
OD450 [19]: 2.2
OD450 [20]: 0.06
OD450 [21]: 2.24
OD450 [22]: 2.1
OD450 [23]: 0.04
OD450 [24]: 0.13
OD450 [25]: 1.77
OD450 [26]: 0.04
OD450 [27]: 1.19
OD450 [28]: 0.04
OD450 [29]: 0.77
OD450 [30]: 0.06
OD450 [31]: 0.07
OD450 [32]: 0.06

B5: S009-F7.67.12 chimeric antibody (antibody, human IgG1, kappa, V domains shown)
VH: QVQLQQPGTELVKPGASVRLSCRASGYSFSSYWMHWVKQRPGQGLEWLGNINPTTGDINYNEKFRNRATLAVDKSSTTAYLQLTSLTSEDSAVYFCVRHDGFLWGQGTTLTVSS
VL: DIQMTQSPASLSASVGETVTITCRASENIYSYLAWYQQKQGKSPQLLVYYAKTLAEGVSSRFSGSGSGTQFSLKINSLQPEDFGTYYCQHQFGTPRTFGGGTKLEIRR
notes: as for B2
OD450 [17]: 2.07
OD450 [18]: 0.05
OD450 [19]: 2.23
OD450 [20]: 0.05
OD450 [21]: 1.78
OD450 [22]: 1.96
OD450 [23]: 0.05
OD450 [24]: 0.07
OD450 [25]: 0.75
OD450 [26]: 0.05
OD450 [27]: 0.23
OD450 [28]: 0.05
OD450 [29]: 0.13
OD450 [30]: 0.04
OD450 [31]: 0.05
OD450 [32]: 0.07

Reference: patent publication US20250250357A1 (NANJING ZAIMING PHARMACEUTICAL, published 2025)
